From US20210324028A1 (Pfizer, published 2021)

Columns and labels:
human IL-15Rα [1] = molecular target: T1, human IL-15Rα (human, UniProt Q13261 31-205, limits assumed); test: SPR 37C
T1 construct: also called hIL-15Rα; IL-15 receptor alpha

human IL-2Rβ [2] = molecular target: T2, human IL-2Rβ (human, UniProt P14784 27-240, limits assumed); test: SPR, steady state
T2 construct: also called hIL-2Rβ; IL-2 receptor beta
T2 sequence (looked up): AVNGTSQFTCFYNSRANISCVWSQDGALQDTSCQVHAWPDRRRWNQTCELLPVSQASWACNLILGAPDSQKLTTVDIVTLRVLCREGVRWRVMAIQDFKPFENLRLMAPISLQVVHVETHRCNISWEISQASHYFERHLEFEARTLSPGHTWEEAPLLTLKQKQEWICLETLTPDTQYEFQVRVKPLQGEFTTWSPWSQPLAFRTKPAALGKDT

human IL-2Rβ [3] = molecular target: T2, human IL-2Rβ; test: SPR 37C
human IL-15Rα [4] = molecular target: T1, human IL-15Rα; test: SPR 37C, fusion captured by anti-human Fc
Procedure: (§1) Anti-human Fc sensor chips were prepared at 25° C. with a running buffer of 10 mM HEPES, 150 mM NaCl, 0.05% (v/v) Tween-20, pH 7.4. All surfaces of a Biacore CM4 sensor chip were activated with a 1:1 (v/v) mixture of 400 mM EDC and 100 mM NHS for 7 minutes, at a flow rate of 10 μL/min. An anti-human Fc reagent (Goat anti-human IgG Fc-γ specific, SouthernBiotech, Birmingham, Ala., Catalog #2014-01) was diluted to 50 μg/mL in 10 mM sodium acetate (pH 4.5) and injected on all flow cells for 7 minutes at 20 μL/min. All flow cells were blocked with 100 mM ethylenediamine in 200 mM Borate buffer pH 8.5 for 7 minutes at 10 μL/min.
(§2) All protein interaction experiments were performed at 37° C. using a running buffer of 10 mM HEPES, 150 mM NaCl, 0.05% (v/v) Tween-20, pH 7.4, 1 mg/mL BSA. Anti-PD-1-hIL-15 fusion proteins were captured at 10 μg/mL at a flow rate of 10 μL/min for 2 minutes. Different fusion proteins were captured in flow cells 2, 3 and 4. No protein was captured onto flow cell 1 which was used as a reference surface. […] After each analyte injection, dissociation was monitored for 5 minutes followed by regeneration of all flow cells with three 60-second injections of 75 mM phosphoric acid. […] For kinetic analysis, the double-referenced sensorgrams were fit globally to a simple 1:1 Langmuir with mass transport binding model using Biacore T200 Evaluation Software version 2.0. For steady-state affinity analysis, the double-referenced equilibrium binding responses were fit with a 1:1 Langmuir steady-state model using Biacore T200 Evaluation Software version 2.0.

human IL-2Rβ [5] = molecular target: T2, human IL-2Rβ; test: SPR 37C, fusion captured by anti-human Fc
Procedure: as §1, §2

T1 sequence (Q13261 31-205 limits assumed): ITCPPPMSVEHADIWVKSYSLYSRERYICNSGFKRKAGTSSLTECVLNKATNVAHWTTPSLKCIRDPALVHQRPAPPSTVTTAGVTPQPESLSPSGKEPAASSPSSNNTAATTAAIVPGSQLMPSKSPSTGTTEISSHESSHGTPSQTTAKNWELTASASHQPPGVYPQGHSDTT

B1: hIL-15 V49R/D30P (ligand)
chain: NWVNVISDLKKIEDLIQSMHIDATLYTESPVHPSCKVTAMKCFLLELQRISLESGDASIHDTVENLIILANNSLSSNGNVTESGCKECEELEEKNIKEFLQSFVHIVQMFINTGGGGSGHHHHHHHHGGGLNDIFEAQKIEWHE
B1: no binding (human IL-15Rα [1]).

B2: hIL-15 V49R/V31K (ligand)
chain: NWVNVISDLKKIEDLIQSMHIDATLYTESDKHPSCKVTAMKCFLLELQRISLESGDASIHDTVENLIILANNSLSSNGNVTESGCKECEELEEKNIKEFLQSFVHIVQMFINTGGGGSGHHHHHHHHGGGLNDIFEAQKIEWHE
With B2 the Kd (human IL-2Rβ [2]) was greater than 500 nM and the binding result (human IL-15Rα [1]) was “no binding”.

B3: hIL-15 V49R/L69K (ligand)
chain: NWVNVISDLKKIEDLIQSMHIDATLYTESDVHPSCKVTAMKCFLLELQRISLESGDASIHDTVENLIIKANNSLSSNGNVTESGCKECEELEEKNIKEFLQSFVHIVQMFINTGGGGSGHHHHHHHHGGGLNDIFEAQKIEWHE
B3: no binding (human IL-15Rα [1]); no binding (human IL-2Rβ [3]).

B4: hIL-15 V49R/I68P (ligand)
chain: NWVNVISDLKKIEDLIQSMHIDATLYTESDVHPSCKVTAMKCFLLELQRISLESGDASIHDTVENLIPLANNSLSSNGNVTESGCKECEELEEKNIKEFLQSFVHIVQMFINTGGGGSGHHHHHHHHGGGLNDIFEAQKIEWHE
B4: no binding (human IL-15Rα [1]); no binding (human IL-2Rβ [3]).

B5: hIL-15 V49R/L69P (ligand)
chain: NWVNVISDLKKIEDLIQSMHIDATLYTESDVHPSCKVTAMKCFLLELQRISLESGDASIHDTVENLIIPANNSLSSNGNVTESGCKECEELEEKNIKEFLQSFVHIVQMFINTGGGGSGHHHHHHHHGGGLNDIFEAQKIEWHE
B5: no binding (human IL-15Rα [1]); no binding (human IL-2Rβ [3]).

B6: xmPD-1-hIL15 V49R/E46G/E64Q/D30N/I68S (other)
heavy 1: HHHHHHHHGGGGSGSGGEVQLVESGGGLVKPGGSLELSCAASGFTFSSYWMSWVRQAPEKGLEWVAAISPSGGSTYYADSVKGRFTISRDNAKNTLFLQMTSLRSEDTAMYYCAKESWGAYYDLWGQGTTVTVSSASTKGPSVFPLAPCSRSTSESTAALGCLVKDYFPEPVTVSWNSGALTSGVHTFPAVLQSSGLYSLSSVVTVPSSNFGTQTYTCNVDHKPSNTKVDKTVERKCRVRCPRCPAPPVAGPSVFLFPPKPKDTLMISRTPEVTCVVVAVSHEDPEVQFNWYVDGVEVHNAKTKPREEQFNSTFRVVSVLTVVHQDWLNGKEYKCKVSNKGLPSSIEKTISKTKGQPREPQVYTLPPSREEMTKNQVSLTCLVKGFYPSDIAVEWESNGQPENNYKTTPPMLDSDGSFFLYSRLTVDKSRWQQGNVFSCSVMHEALHNHYTQKSLSLSPGK
heavy 2: EVQLVESGGGLVKPGGSLELSCAASGFTFSSYWMSWVRQAPEKGLEWVAAISPSGGSTYYADSVKGRFTISRDNAKNTLFLQMTSLRSEDTAMYYCAKESWGAYYDLWGQGTTVTVSSASTKGPSVFPLAPCSRSTSESTAALGCLVKDYFPEPVTVSWNSGALTSGVHTFPAVLQSSGLYSLSSVVTVPSSNFGTQTYTCNVDHKPSNTKVDKTVERKCEVECPECPAPPVAGPSVFLFPPKPKDTLMISRTPEVTCVVVAVSHEDPEVQFNWYVDGVEVHNAKTKPREEQFNSTFRVVSVLTVVHQDWLNGKEYKCKVSNKGLPSSIEKTISKTKGQPREPQVYTLPPSREEMTKNQVSLTCEVKGFYPSDIAVEWESNGQPENNYKTTPPMLDSDGSFFLYSKLTVDKSRWQQGNVFSCSVMHEALHNHYTQKSLSLSPGSGGGGGTSATATPGANWVNVISDLKKIEDLIQSMHIDATLYTESNVHPSCKVTAMKCFLLGLQRISLESGDASIHDTVQNLISLANNSLSSNGNVTESGCKECEELEEKNIKEFLQSFVHIVQMFINT
light: DIVMTQSPSSLSVSAGDKVTMSCRASQGISSWLAWYQQKPWQPPKLLIYKASTLESGVPDRFTGSGSGTDFTLTISSVQAEDLAVYYCQQSYSTPWTFGGGTKLEIKGTVAAPSVFIFPPSDEQLKSGTASVVCLLNNFYPREAKVQWKVDNALQSGNSQESVTEQDSKDSTYSLSSTLTLSKADYEKHKVYACEVTHQGLSSPVTKSFNRGEC
notes: not restated for this mutant; also called xmPD1-hIL15_V49R-E46G-E64Q-I68S-D30N
B6: no binding (tested: 3000 nM) (human IL-15Rα [4]); no binding (tested: 3000 nM) (human IL-2Rβ [5]).

B7: xmPD-1-hIL15 V49R/E46G/E64Q/D30N/N4K (other)
heavy 1: HHHHHHHHGGGGSGSGGEVQLVESGGGLVKPGGSLELSCAASGFTFSSYWMSWVRQAPEKGLEWVAAISPSGGSTYYADSVKGRFTISRDNAKNTLFLQMTSLRSEDTAMYYCAKESWGAYYDLWGQGTTVTVSSASTKGPSVFPLAPCSRSTSESTAALGCLVKDYFPEPVTVSWNSGALTSGVHTFPAVLQSSGLYSLSSVVTVPSSNFGTQTYTCNVDHKPSNTKVDKTVERKCRVRCPRCPAPPVAGPSVFLFPPKPKDTLMISRTPEVTCVVVAVSHEDPEVQFNWYVDGVEVHNAKTKPREEQFNSTFRVVSVLTVVHQDWLNGKEYKCKVSNKGLPSSIEKTISKTKGQPREPQVYTLPPSREEMTKNQVSLTCLVKGFYPSDIAVEWESNGQPENNYKTTPPMLDSDGSFFLYSRLTVDKSRWQQGNVFSCSVMHEALHNHYTQKSLSLSPGK
heavy 2: EVQLVESGGGLVKPGGSLELSCAASGFTFSSYWMSWVRQAPEKGLEWVAAISPSGGSTYYADSVKGRFTISRDNAKNTLFLQMTSLRSEDTAMYYCAKESWGAYYDLWGQGTTVTVSSASTKGPSVFPLAPCSRSTSESTAALGCLVKDYFPEPVTVSWNSGALTSGVHTFPAVLQSSGLYSLSSVVTVPSSNFGTQTYTCNVDHKPSNTKVDKTVERKCEVECPECPAPPVAGPSVFLFPPKPKDTLMISRTPEVTCVVVAVSHEDPEVQFNWYVDGVEVHNAKTKPREEQFNSTFRVVSVLTVVHQDWLNGKEYKCKVSNKGLPSSIEKTISKTKGQPREPQVYTLPPSREEMTKNQVSLTCEVKGFYPSDIAVEWESNGQPENNYKTTPPMLDSDGSFFLYSKLTVDKSRWQQGNVFSCSVMHEALHNHYTQKSLSLSPGSGGGGGTSATATPGANWVKVISDLKKIEDLIQSMHIDATLYTESNVHPSCKVTAMKCFLLGLQRISLESGDASIHDTVQNLIILANNSLSSNGNVTESGCKECEELEEKNIKEFLQSFVHIVQMFINT
light: DIVMTQSPSSLSVSAGDKVTMSCRASQGISSWLAWYQQKPWQPPKLLIYKASTLESGVPDRFTGSGSGTDFTLTISSVQAEDLAVYYCQQSYSTPWTFGGGTKLEIKGTVAAPSVFIFPPSDEQLKSGTASVVCLLNNFYPREAKVQWKVDNALQSGNSQESVTEQDSKDSTYSLSSTLTLSKADYEKHKVYACEVTHQGLSSPVTKSFNRGEC
notes: not restated for this mutant; also called xmPD1-hIL15_V49R-E46G-N4K-E64Q-D30N
B7: no binding (tested: 3000 nM) (human IL-15Rα [4]); no binding (tested: 3000 nM) (human IL-2Rβ [5]).

B8: xmPD-1-hIL15 V49R/E46G/E64Q/D30N/I68S/M109A (other)
heavy 1: HHHHHHHHGGGGSGSGGEVQLVESGGGLVKPGGSLELSCAASGFTFSSYWMSWVRQAPEKGLEWVAAISPSGGSTYYADSVKGRFTISRDNAKNTLFLQMTSLRSEDTAMYYCAKESWGAYYDLWGQGTTVTVSSASTKGPSVFPLAPCSRSTSESTAALGCLVKDYFPEPVTVSWNSGALTSGVHTFPAVLQSSGLYSLSSVVTVPSSNFGTQTYTCNVDHKPSNTKVDKTVERKCRVRCPRCPAPPVAGPSVFLFPPKPKDTLMISRTPEVTCVVVAVSHEDPEVQFNWYVDGVEVHNAKTKPREEQFNSTFRVVSVLTVVHQDWLNGKEYKCKVSNKGLPSSIEKTISKTKGQPREPQVYTLPPSREEMTKNQVSLTCLVKGFYPSDIAVEWESNGQPENNYKTTPPMLDSDGSFFLYSRLTVDKSRWQQGNVFSCSVMHEALHNHYTQKSLSLSPGK
heavy 2: EVQLVESGGGLVKPGGSLELSCAASGFTFSSYWMSWVRQAPEKGLEWVAAISPSGGSTYYADSVKGRFTISRDNAKNTLFLQMTSLRSEDTAMYYCAKESWGAYYDLWGQGTTVTVSSASTKGPSVFPLAPCSRSTSESTAALGCLVKDYFPEPVTVSWNSGALTSGVHTFPAVLQSSGLYSLSSVVTVPSSNFGTQTYTCNVDHKPSNTKVDKTVERKCEVECPECPAPPVAGPSVFLFPPKPKDTLMISRTPEVTCVVVAVSHEDPEVQFNWYVDGVEVHNAKTKPREEQFNSTFRVVSVLTVVHQDWLNGKEYKCKVSNKGLPSSIEKTISKTKGQPREPQVYTLPPSREEMTKNQVSLTCEVKGFYPSDIAVEWESNGQPENNYKTTPPMLDSDGSFFLYSKLTVDKSRWQQGNVFSCSVMHEALHNHYTQKSLSLSPGSGGGGGTSATATPGANWVNVISDLKKIEDLIQSMHIDATLYTESNVHPSCKVTAMKCFLLGLQRISLESGDASIHDTVQNLISLANNSLSSNGNVTESGCKECEELEEKNIKEFLQSFVHIVQAFINT
light: DIVMTQSPSSLSVSAGDKVTMSCRASQGISSWLAWYQQKPWQPPKLLIYKASTLESGVPDRFTGSGSGTDFTLTISSVQAEDLAVYYCQQSYSTPWTFGGGTKLEIKGTVAAPSVFIFPPSDEQLKSGTASVVCLLNNFYPREAKVQWKVDNALQSGNSQESVTEQDSKDSTYSLSSTLTLSKADYEKHKVYACEVTHQGLSSPVTKSFNRGEC
notes: not restated for this mutant; also called xmPD1-hIL15_V49R-E46G-E64Q-I68S-D30N-M109A
B8: no binding (tested: 3000 nM) (human IL-15Rα [4]); no binding (tested: 3000 nM) (human IL-2Rβ [5]).
